Marks after values point to notes of the source that are not given here.
T1: GIPR (UniProt P48546 22-466, limits assumed)
T1 sequence (looked up): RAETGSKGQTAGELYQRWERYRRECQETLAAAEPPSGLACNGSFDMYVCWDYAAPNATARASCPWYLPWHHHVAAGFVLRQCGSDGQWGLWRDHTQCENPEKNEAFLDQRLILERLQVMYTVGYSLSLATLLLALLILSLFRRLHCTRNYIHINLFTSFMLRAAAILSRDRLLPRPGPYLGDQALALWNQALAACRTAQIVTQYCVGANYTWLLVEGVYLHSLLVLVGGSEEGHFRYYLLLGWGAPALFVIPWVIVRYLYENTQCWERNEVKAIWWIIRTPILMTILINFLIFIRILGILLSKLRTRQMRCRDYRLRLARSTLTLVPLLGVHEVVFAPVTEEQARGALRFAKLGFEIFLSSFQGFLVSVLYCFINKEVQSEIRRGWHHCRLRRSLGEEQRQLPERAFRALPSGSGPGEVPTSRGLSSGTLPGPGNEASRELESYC

B1: Compound 12 (peptide)
peptide: YXQGTFTSDYSIXLDKXAQXAFIEYLLEGGPSSGAPPPS
modifications: Aib at 2; αMethyl-Leu at 13; Lys 17 ε-amino acylated with Moiety A; Aib at 20; C-terminal amide (Rink amide resin)
B2: Compound 18 (peptide)
peptide: B1 peptide
modifications: not fully specified; Aib at 2; norvaline at 13; Lys 17 ε-amino acylated with Moiety G; Aib at 20; C-terminal amide
B3: Compound 13 (peptide)
peptide: B1 peptide
modifications: Aib at 2; αMethyl-Leu at 13; Lys 17 ε-amino acylated with Moiety B; Aib at 20; C-terminal amide
B4: Compound 14 (peptide)
peptide: B1 peptide
modifications: Aib at 2; norleucine at 13; Lys 17 ε-amino acylated with Moiety B; Aib at 20; C-terminal amide
B5: Compound 20 (peptide)
peptide: B1 peptide
modifications: Aib at 2; αMethyl-Leu at 13; Lys 17 ε-amino acylated with Moiety D; Aib at 20; C-terminal amide
B6: Compound 19 (peptide)
peptide: B1 peptide
modifications: Aib at 2; αMethyl-Leu at 13; Lys 17 ε-amino acylated with Moiety C; Aib at 20; C-terminal amide
B7: Compound 17 (peptide)
peptide: B1 peptide
modifications: Aib at 2; norvaline at 13; Lys 17 ε-amino acylated with Moiety B; Aib at 20; C-terminal amide

Key:
Rats [1] = test: Oral Glucose Tolerance Test (OGTT) in rats, single injection (blood glucose AUC, body weight, food consumption); format: in vivo; conditions: for Food Consumption (g) / Body weight change (%): 30 nM/kg s.c.; for Food Consumption (g): 0-12 hr; for Food Consumption (g) / Body weight change (%) / Blood Glucose AUC(0-120min) Mean: mean (n=4); for Blood Glucose AUC(0-120min) Mean: OGTT 2 g/kg glucose orally, 24 hr post subcutaneous injection of 30 nM/kg; for % Change in Blood glucose AUC(0-120min) vs placebo control: OGTT 24 hr post subcutaneous injection of 30 nM/kg
Experimental: Animals were divided into 6 groups (n=4/group): a placebo control group, Compound 17, (30 nM/kg), Compound 18 (30 nM/kg), Compound 19 (30 nM/kg), Compound 20 (30 nM/kg), and Retatrutide (30 nM/kg). Animals were fasted for 12 hours before initiation of OGTT. After 24 hours of subcutaneous injection of tests or Retatrutide, blood glucose was measured with blood glucometer (time 0 measurement). All the animals were given 2 g/kg of glucose solution orally. Blood glucose was measured at 10, 20, 40, 60, 90, and 120 min following glucose challenge. Body weight and food consumption were recorded at 12 hr, 48 hr and 72 hr.

Rats [2] = test: as above; format: in vivo; conditions: 30 nM/kg s.c., mean (n=4); for Body weight change (%): 24 hr
GCGR = GCGR (UniProt P47871 26-477, limits assumed); test: cell-based or functional assay
GLP-1R = GLP-1R (UniProt P43220 24-463, limits assumed); test: cell-based or functional assay
GIPR = target: T1, GIPR; test: cell-based or functional assay

Sequence of GCGR (P47871 26-477 limits assumed): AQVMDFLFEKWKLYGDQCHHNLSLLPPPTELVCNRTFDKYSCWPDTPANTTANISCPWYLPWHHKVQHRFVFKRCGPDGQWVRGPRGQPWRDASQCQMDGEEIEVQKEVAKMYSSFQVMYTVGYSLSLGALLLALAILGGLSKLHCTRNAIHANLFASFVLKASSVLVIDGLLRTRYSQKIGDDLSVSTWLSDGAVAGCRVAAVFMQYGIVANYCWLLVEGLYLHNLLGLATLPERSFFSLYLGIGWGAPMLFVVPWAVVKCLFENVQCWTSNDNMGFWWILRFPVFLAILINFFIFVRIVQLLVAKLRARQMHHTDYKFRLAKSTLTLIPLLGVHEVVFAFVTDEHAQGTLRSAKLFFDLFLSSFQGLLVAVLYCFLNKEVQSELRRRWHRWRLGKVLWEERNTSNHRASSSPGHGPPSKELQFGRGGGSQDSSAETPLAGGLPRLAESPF

Row | Molecule | Food Consumption (g) (Rats [1]) | Body weight change (%) (Rats [1]; 48 hr) | Body weight change (%) (Rats [1]; 72 hr) | Blood Glucose AUC(0-120min) Mean (Rats [1]) | % Change in Blood glucose AUC(0-120min) vs placebo control (Rats [1]) [%] | Food Consumption (g) (Rats [2]; 24-48 hr) | Food Consumption (g) (Rats [2]; 24-72 hr) | Body weight change (%) (Rats [2]) | EC50 value, cellular cAMP assay (Hit Hunter cAMP) (GCGR) [nM] | EC50 value, cellular cAMP assay (Hit Hunter cAMP) (GLP-1R) [nM] | EC50 value, cellular cAMP assay (Hit Hunter cAMP) (GIPR) [nM]
1 | CCC[C@H](NC(=O)[C@@H](NC(=O)[C@H](CO)NC(=O)[C@H](Cc1ccc(O)cc1)NC(=O)[C@H](CC(=O)O)NC(=O)[C@H](CO)NC(=O)[C@@H](NC(=O)[C@H](Cc1ccccc1)NC(=O)[C@@H](NC(=O)CNC(=O)[C@H](CCC(N)=O)NC(=O)C(C)(C)NC(=O)[C@@H](N)Cc1ccc(O)cc1)[C@@H](C)O)[C@@H](C)O)[C@@H](C)CC)C(=O)N[C@@H](CC(C)C)C(=O)N[C@@H](CC(=O)O)C(=O)N[C@@H](CCCCN)C(=O)N[C@@H](CCCCNC(=O)COCCOCCNC(=O)COCCOCCNC(=O)CC[C@H](NC(=O)CCCCCCCCCCCCCCCCCCC(=O)O)C(=O)O)C(=O)N[C@@H](C)C(=O)N[C@@H](CCC(N)=O)C(=O)NC(C)(C)C(=O)N[C@@H](C)C(=O)N[C@@H](Cc1ccccc1)C(=O)N[C@H](C(=O)N[C@@H](CCC(=O)O)C(=O)N[C@@H](Cc1ccc(O)cc1)C(=O)N[C@@H](CC(C)C)C(=O)N[C@@H](CC(C)C)C(=O)N[C@@H](CCC(=O)O)C(=O)NCC(=O)NCC(=O)N1CCC[C@H]1C(=O)N[C@@H](CO)C(=O)N[C@@H](CO)C(=O)NCC(=O)N[C@@H](C)C(=O)N1CCC[C@H]1C(=O)N1CCC[C@H]1C(=O)N1CCC[C@H]1C(=O)N[C@@H](CO)C(N)=O)[C@@H](C)CC [Compound 18] | 3.0*** g | -4.6*** % | -2.6*** % | 4176.3*** | -56.82 | 5.8*** g | 16.8*** g | -6.5*** % |  |  | 
2 | CC[C@H](C)[C@H](NC(=O)[C@H](Cc1ccccc1)NC(=O)[C@H](C)NC(=O)C(C)(C)NC(=O)[C@H](CCC(N)=O)NC(=O)[C@H](C)NC(=O)[C@H](CCCCNC(=O)COCCOCCNC(=O)NCCCCNC(=O)CC[C@H](NC(=O)CCCCCCCCCCCCCCCCCCC(=O)O)C(=O)O)NC(=O)[C@H](CCCCN)NC(=O)[C@H](CC(=O)O)NC(=O)[C@H](CC(C)C)NC(=O)[C@](C)(CC(C)C)NC(=O)[C@@H](NC(=O)[C@H](CO)NC(=O)[C@H](Cc1ccc(O)cc1)NC(=O)[C@H](CC(=O)O)NC(=O)[C@H](CO)NC(=O)[C@@H](NC(=O)[C@H](Cc1ccccc1)NC(=O)[C@@H](NC(=O)CNC(=O)[C@H](CCC(N)=O)NC(=O)C(C)(C)NC(=O)[C@@H](N)Cc1ccc(O)cc1)[C@@H](C)O)[C@@H](C)O)[C@@H](C)CC)C(=O)N[C@@H](CCC(=O)O)C(=O)N[C@@H](Cc1ccc(O)cc1)C(=O)N[C@@H](CC(C)C)C(=O)N[C@@H](CC(C)C)C(=O)N[C@@H](CCC(=O)O)C(=O)NCC(=O)NCC(=O)N1CCC[C@H]1C(=O)N[C@@H](CO)C(=O)N[C@@H](CO)C(=O)NCC(=O)N[C@@H](C)C(=O)N1CCC[C@H]1C(=O)N1CCC[C@H]1C(=O)N1CCC[C@H]1C(=O)N[C@@H](CO)C(N)=O [Compound 20] | 1.6*** g | -4.6*** % | -2.7*** % | 4472.5*** | -53.76 | 12.8*** g | 33.1*** g | -6.0*** % |  |  | 
3 | B1 |  |  |  |  |  |  |  |  | 6.99 | 12 | 12
4 | B2 |  |  |  |  |  |  |  |  | 0.193 | 0.0173 | 0.0227
5 | B3 |  |  |  |  |  |  |  |  | > 1.8 | > 2.4 | > 1.5
6 | B4 |  |  |  |  |  |  |  |  | 20.9 | 8.54 | 24
7 | B5 |  |  |  |  |  |  |  |  | 0.14 | 0.0144 | 0.0181
8 | B6 |  |  |  |  |  |  |  |  | 0.109 | 0.0116 | 0.0138
9 | B7 |  |  |  |  |  |  |  |  | 0.0133 | 0.0087 | 0.0115

Reference: patent publication EP4803094A2, “GLP-1/GIP DUAL, GLP-1/GCG DUAL AND GLP-1/GIP/GCG TRIPLE RECEPTOR AGONISTS” (Sun Pharmaceutical Industries Limited, priority 2023, dated 2024)
